No end group written: not given here. *: point of attachment. Succinimide(1-Et,3-yl) = CCN1C(=O)CC(*)C1=O
T1: human CRH receptor type 2 (human, UniProt Q13324 1-411)
T1 sequence (looked up): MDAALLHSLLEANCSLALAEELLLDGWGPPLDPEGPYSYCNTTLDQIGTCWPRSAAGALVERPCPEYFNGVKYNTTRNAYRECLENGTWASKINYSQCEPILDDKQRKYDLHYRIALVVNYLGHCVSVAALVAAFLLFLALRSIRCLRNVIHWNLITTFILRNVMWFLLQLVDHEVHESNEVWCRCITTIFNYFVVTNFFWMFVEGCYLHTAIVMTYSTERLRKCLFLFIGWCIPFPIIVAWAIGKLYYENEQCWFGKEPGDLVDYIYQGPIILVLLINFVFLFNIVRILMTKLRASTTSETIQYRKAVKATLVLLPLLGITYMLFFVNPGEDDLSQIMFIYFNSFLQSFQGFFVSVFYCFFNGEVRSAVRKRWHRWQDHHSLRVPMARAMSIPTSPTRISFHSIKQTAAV

B1: Cys-variant of stresscopin peptide with N-Ethylsuccinimide (NES) reactive group, SEQ ID NO: 42 (peptide)
peptide: TKFTLSLDVPTNIMNLLFNIAKAKNLRAQAAANAHLMAQC(Succinimide(1-Et,3-yl))-NH2
modifications: N-terminus assumed
SMILES: CC[C@H](C)[C@H](NC(=O)[C@H](CC(N)=O)NC(=O)[C@H](Cc1ccccc1)NC(=O)[C@H](CC(C)C)NC(=O)[C@H](CC(C)C)NC(=O)[C@H](CC(N)=O)NC(=O)[C@H](CCSC)NC(=O)[C@@H](NC(=O)[C@H](CC(N)=O)NC(=O)[C@@H](NC(=O)[C@@H]1CCCN1C(=O)[C@@H](NC(=O)[C@H](CC(=O)O)NC(=O)[C@H](CC(C)C)NC(=O)[C@H](CO)NC(=O)[C@H](CC(C)C)NC(=O)[C@@H](NC(=O)[C@H](Cc1ccccc1)NC(=O)[C@H](CCCCN)NC(=O)[C@@H](N)[C@@H](C)O)[C@@H](C)O)C(C)C)[C@@H](C)O)[C@@H](C)CC)C(=O)N[C@@H](C)C(=O)N[C@@H](CCCCN)C(=O)N[C@@H](C)C(=O)N[C@@H](CCCCN)C(=O)N[C@@H](CC(N)=O)C(=O)N[C@@H](CC(C)C)C(=O)N[C@@H](CCCNC(=N)N)C(=O)N[C@@H](C)C(=O)N[C@@H](CCC(N)=O)C(=O)N[C@@H](C)C(=O)N[C@@H](C)C(=O)N[C@@H](C)C(=O)N[C@@H](CC(N)=O)C(=O)N[C@@H](C)C(=O)N[C@@H](Cc1c[nH]cn1)C(=O)N[C@@H](CC(C)C)C(=O)N[C@@H](CCSC)C(=O)N[C@@H](C)C(=O)N[C@@H](CCC(N)=O)C(=O)N[C@@H](CSC1CC(=O)N(CC)C1=O)C(N)=O

Molecular target: T1, human CRH receptor type 2
Test: cell-based or functional assay

Binder | Log DR against h-SCP, cAMP [log10 ratio] | pA50, cAMP
TKFTLSLDVPTNIMNLLFNIAKAKNLRAQAAACAHLMAQI-NH2 [Cys-variant CRHR2 peptide agonist, SEQ ID NO: 34] | > 3.19 | ~6.32 -log M
TKFTLSLDVPTNIMNLLFNIAKAKNLRAQAAANAHLCAQI-NH2 [Cys-variant CRHR2 peptide agonist, SEQ ID NO: 38] | > 2.95 | ~6.67 -log M
TKFTLSLDVPTNIMNLLFNIAKAKNLRAQAACNAHLMAQI-NH2 [Cys-variant CRHR2 peptide agonist, SEQ ID NO: 33] | 0.45 | 9.07 -log M
TKFTLSLDVPTNIMNLLFNIAKAKNLRACAAANAHLMAQI-NH2 [Cys-variant CRHR2 peptide agonist, SEQ ID NO: 30] | 1.28 | 8.4 -log M
TKFTLSLDVPTNIMNLLFNIAKAKNLRAQAAANAHLMAQC-NH2 [Cys-variant CRHR2 peptide agonist, SEQ ID NO: 41] | 2.07 | 7.45 -log M
TKFTLSLDVPTNIMNLLFNIAKAKNLRCQAAANAHLMAQI-NH2 [Cys-variant CRHR2 peptide agonist, SEQ ID NO: 29] | 0 | 9.47 -log M
TKFTLSLDVPTNIMNLLFNIAKAKNLCAQAAANAHLMAQI (NES-PEG (about 20 kDa) on Cys 27; C-terminal amide) [Pegylated Cys-variant CRHR2 peptide agonist (NES linker, PEG about 20 kDa), SEQ ID NO: 81] | 1.82 | 7.83 -log M
TKFTLSLDVPTNIMNLLFNIAKAKNLRACAAANAHLMAQI (NES-PEG (about 20 kDa) on Cys 29; C-terminal amide) [Pegylated Cys-variant CRHR2 peptide agonist (NES linker, PEG about 20 kDa), SEQ ID NO: 83] | 1.63 | 7.91 -log M
TKFTLSLDVPTNIMNLLFNIAKAKNLRAQAACNAHLMAQI (NES-PEG (about 20 kDa) on Cys 32; C-terminal amide) [Pegylated Cys-variant CRHR2 peptide agonist (NES linker, PEG about 20 kDa), SEQ ID NO: 86] | 0.82 | 8.79 -log M
TKFTLSLDVPTNIMNLLFNIAKAKNLRAQAAANAHLMACI (NES-PEG (about 20 kDa) on Cys 39; C-terminal amide) [Pegylated Cys-variant CRHR2 peptide agonist (NES linker, PEG about 20 kDa), SEQ ID NO: 93] | 1.47 | 8.2 -log M
TKFTLSLDVPTNIMNLLFNIAKAKNLRAQAAANAHLMCQI (NES-PEG (about 20 kDa) on Cys 38; C-terminal amide) [Pegylated Cys-variant CRHR2 peptide agonist (NES linker, PEG about 20 kDa), SEQ ID NO: 92] | 1.55 | 8.12 -log M
TKFTLSLDVPTNIMNLLFNIAKAKNLRAQAAACAHLMAQI (NES-PEG (about 20 kDa) on Cys 33; C-terminal amide) [Pegylated Cys-variant CRHR2 peptide agonist (NES linker, PEG about 20 kDa), SEQ ID NO: 87] | > 3.68 | ~6 -log M
TKFTLSLDVPTNIMNLLFNIAKAKNLRAQAAANACLMAQI (NES-PEG (about 20 kDa) on Cys 35; C-terminal amide) [Pegylated Cys-variant CRHR2 peptide agonist (NES linker, PEG about 20 kDa), SEQ ID NO: 89] | 0.98 | 8.48 -log M
TKFTLSLDVPTNIMNLLFNIAKAKNLRCQAAANAHLMAQI (NES-PEG MW5000 on Cys 28; C-terminal amide) [Pegylated Cys-variant CRHR2 peptide agonist (NES-PEG MW5000), SEQ ID NO: 96] | 1 | 8.74 -log M
TKFTLSLDVPTNIMNLLFNIAKAKNLRAQACANAHLMAQI (NES-PEG (about 20 kDa) on Cys 31; C-terminal amide) [Pegylated Cys-variant CRHR2 peptide agonist (NES linker, PEG about 20 kDa), SEQ ID NO: 85] | 0.89 | 8.51 -log M
TKFTLSLDVPTNIMNLLFNIAKAKNLRCQAAANAHLMAQI (NES-PEG (about 20 kDa; MW20000) on Cys 28; C-terminal amide) [Pegylated Cys-variant CRHR2 peptide agonist (NES linker, PEG about 20 kDa), SEQ ID NO: 82] | 1.12 | 8.4 -log M
TKFTLSLDVPTNIMNLLFNIAKAKNLRAQAAANAHLCAQI (NES-PEG (about 20 kDa) on Cys 37; C-terminal amide) [Pegylated Cys-variant CRHR2 peptide agonist (NES linker, PEG about 20 kDa), SEQ ID NO: 91] | > 3.43 | ~6.23 -log M
TKFTLSLDVPTNIMNLLFNIAKAKNLRAQAAANCHLMAQI (NES-PEG (about 20 kDa) on Cys 34; C-terminal amide) [Pegylated Cys-variant CRHR2 peptide agonist (NES linker, PEG about 20 kDa), SEQ ID NO: 88] | 1.55 | 8.12 -log M
TKFTLSLDVPTNIMNLLFNIAKAKNLRAQCAANAHLMAQI (NES-PEG (about 20 kDa) on Cys 30; C-terminal amide) [Pegylated Cys-variant CRHR2 peptide agonist (NES linker, PEG about 20 kDa), SEQ ID NO: 84] | ~2.84 | ~6.82 -log M
TKFTLSLDVPTNIMNLLFNIAKAKNLRAQAAANAHLMAQC (NES-PEG (about 20 kDa) on Cys 40; C-terminal amide) [Pegylated Cys-variant CRHR2 peptide agonist (NES linker, PEG about 20 kDa), SEQ ID NO: 94] | > 2.39 | ~7 -log M
TKFTLSLDVPTNIMNLLFNIAKAKNLRCQAAANAHLMAQI (NES-PEG MW2000 on Cys 28; C-terminal amide) [Pegylated Cys-variant CRHR2 peptide agonist (NES-PEG MW2000), SEQ ID NO: 95] | 0.43 | 9.31 -log M
B1 | ~1.72 | ~7.75 -log M
TKFTLSLDVPTNIMNLLFNIAKAKNLRAQAAANAHLMACI-NH2 [Cys-variant CRHR2 peptide agonist, SEQ ID NO: 40] | 0.55 | 9.08 -log M
TKFTLSLDVPTNIMNLLFNIAKAKNLRAQCAANAHLMAQI-NH2 [Cys-variant CRHR2 peptide agonist, SEQ ID NO: 31] | 1.61 | 8.02 -log M
TKFTLSLDVPTNIMNLLFNIAKAKNLRAQAAANAHCMAQI-NH2 [Cys-variant CRHR2 peptide agonist, SEQ ID NO: 37] | 1.05 | 8.58 -log M
TKFTLSLDVPTNIMNLLFNIAKAKNLRAQAAANAHLMCQI-NH2 [Cys-variant CRHR2 peptide agonist, SEQ ID NO: 39] | 0.41 | 9.21 -log M
TKFTLSLDVPTNIMNLLFNIAKAKNLRAQAAANCHLMAQI-NH2 [Cys-variant CRHR2 peptide agonist, SEQ ID NO: 35] | 0.7 | 8.93 -log M
TKFTLSLDVPTNIMNLLFNIAKAKNLRAQAAANACLMAQI-NH2 [Cys-variant CRHR2 peptide agonist, SEQ ID NO: 36] | 0.42 | 9.1 -log M
TKFTLSLDVPTNIMNLLFNIAKAKNLRAQACANAHLMAQI-NH2 [Cys-variant CRHR2 peptide agonist, SEQ ID NO: 32] | 0.11 | 9.41 -log M
TKFTLSLDVPTNIMNLLFNIAKAKNLCAQAAANAHLMAQI-NH2 [Cys-variant CRHR2 peptide agonist, SEQ ID NO: 28] | 0.16 | 9.36 -log M

Source: patent US20100130424A1 (Janssen / Centocor, published 2010)
